What was measured:
Assay type in all cases: cell-based, human
[1] = tested on: cleaved caspase 3 and μ-H2AX; assay: Western blot of cleaved caspase 3 and μ-H2AX in Ramos; conditions: IL-4 10 ng/ml; 33 nM
Experimental: Levels of cleaved caspase 3 (apoptotic protein) and μ-H2AX (DNA damage marker) were investigated by western blot in the Ramos B cells treated in the same paradigm. In brief, total proteins were extracted from the Ramos cells in RIPA lysis buffer supplemented with Halt™ Protease and Phosphatase Inhibitor Cocktail. Proteins were denatured and separated through electrophoresis and blotted on the nitrocellulose membrane. The membrane was blocked with 5% nonfat milk diluted in TBST, then incubated with primary antibodies diluted in 5% BSA/TBS T at 4° C. overnight in a rotating wheel. Next day, membrane was washed with PBST and incubated with secondary antibodies diluted in 5% milk/TBST for an hour at RT. Intensities of protein bands were determined using ECL substrate kit in the ChemiDoc Imaging System.

CD23 expression = assay: qRT-PCR of CD23 expression in Ramos; conditions: IL-4 10 ng/ml, 24 hours, 33 nM
Experimental: Genes related to the B cell functions were investigated by quantitative real-time PCR (qRT-PCR). In brief, Ramos cells were starved in serum-free RPMI1640 medium for 24 hours and then treated with 10 ng/ml IL-4 or IL-21 for 24 hours. Total RNA was extracted by RNAzol following manufacturer's protocol. Reverse transcription was performed in 500 ng of total RNA using PrimeScript RT reagent kit and the gene expression was analyzed by quantitative real-time PCR using TB Green Premix Ex Taq in Lightcycler® 480 Real-Time PCR System. Housekeeping gene GAPDH was used for normalization.

granzyme A secretion = assay: Granzyme A secretion from KHYG-1, ELISA; conditions: 3 days, 33 nM
Experimental: To test the efficacies of anti-γc antibodies, proliferation and granzyme A secretion were chosen as the experimental models. In brief, KHYG-1 was seeded into either 48- or 96-well plates and starved in non-IL-2 supplemented medium overnight. After replenishment with new medium, KHYG-1 was pre-incubated with anti-γc antibodies or ritlecitinib for an hour before the administration of γc cytokines for 3 days. Proliferation rate was determined by the addition of WST-8 reagent while the secretion of granzyme A was estimated by ELISA measurement.

[2] = tested on: granzyme and IFNγ secretion; assay: Secretion of granzymes and IFNγ from PBMC culture, ELISA
Experimental: Activation of T and NK cells in the PBMC culture could be studied by granzyme and IFNγ secretion [Carlin et al., Blood., 2005; 106 (12): 3874-9; Grossman et al., Blood., 2004; 104 (9): 2840-8; Keppel et al., J Immunol., 2015; 194 (4): 1954-1962; Tamang et al., Cytokine., 2006; 36 (3-4): 148-59]. Similar results are obtained in-house that IL-2 and IL-15 but not IL-21 could trigger secretion of granzyme A and IFNγ in PBMC culture (FIG. 15A-B).
Antibodies or ritlecitinib were added into the PBMC culture to investigate their inhibitory effects in the presence of IL-2 or IL-15 treatment.
Releases of cytolytic agents from PBMC culture were further evaluated by ELISA assays.

[3] = tested on: IL-15 induced STAT5 phosphorylation; assay: Inhibition of IL-15 induced STAT phosphorylation in KHYG-1 NK cell line, flow cytometry; conditions: ScFv 10 μg/ml
From the text: (§1) Cells were harvested and stained with FITC conjugated anti-pSTAT6, PE conjugated anti-pSTAT3 or APC con jugated anti-pSTAT5 antibodies for flow cytometry analyses. In some embodiments, the purified ScFv could block the IL-4 induced STAT6 phosphorylation in cell culture (e.g., Ramos). In some embodiments, the purified ScFv could block the IL-7 induced STAT5 phosphorylation in cell culture (e.g., HPB-ALL). In some embodiments, the purified ScFv could block the IL-9 induced STAT3 phosphorylation in cell culture (e.g., Jurkat). In some embodiments, the purified ScFv could block the IL-15 induced STAT5 phosphorylation in cell culture (e.g., KHYG-1). In some embodiments, the purified ScFv could block the IL-21 induced STAT3 phosphorylation in cell culture (e.g., Ramos).
(§2) Flow cytometry was employed to measure the percentage of p-STAT expressing cells after cytokine induction and anti-γc ScFv treatment. KHYG-1 (Creative Bioarray, Shirley, NY 11967, USA) was starved in IL-2 free RPMI1640 (ATCC modification, ThermoFisher Scientific, Waltham, MA, USA) with 10% FBS (ThermoFisher Scientific) for 2 days. Ramos, HPB-ALL and Jurkat cell lines were used directly without starvation. Cells were replenished with fresh RPMI1640 medium and pretreated with anti-γc ScFv (10 μg/mL) for an hour. After treatment with TL-4 (10 ng/ml, Sino Biological), IL-7 (50 ng/ml, Sino Biological), IL-9 (50 ng/ml, Sino Biological), IL-15 (10 ng/ml, Sino Biological) or IL-21 (10 ng/ml, Sino Biological) for 15 min, cells were fixed in 4% paraformaldehyde (PFA, Sigma, St. Louis, Missouri, USA) for 10 min, permeabilized in 0.1% Triton X-100 (Sigma) for 10 min and then stained with FITC conjugated anti-pSTAT6, PE conjugated anti-pSTAT3 or APC con jugated anti-pSTAT5 (all diluted in 1:100, Biolegend, San Diego, California, USA) for 30 min at 37° C. Percentage of p-STAT expressing cells was measured by BD FACSLyric™ Clinical Flow Cytometry System (BD Biosciences, New Jersey, USA). Data were analyzed by Flowjo (version 10, BD).
(§3) Different cell lines were used for testing. KHYG-1 refers to the NK cell line harvested from the peripheral blood of a person with aggressive NK cell leukemia. This cell line could respond to IL-2 and IL-15 stimulation in-vitro [Yamasaki et al., Leuk Res., […]; 28 (10): 1023-31]. Ramos is a human Burkitts Lymphoma cell line (CRL-1596™) and could be used as a model for IL-4 and IL-21 studies [Hui et al., Front Immunol., 2022; 13: 919854]. Jurkat is a human T lymphoblast cell line (Clone E6-1, TIB-152™) and is widely used in the T cell studies of IL-9 function. HPB-ALL is a T cell leukemia model established from the peripheral blood of a child with ALL and thymoma at diagnosis in 1973 and could be used for IL-7 functional studies.

[4] = tested on: IL-4 induced STAT6 phosphorylation; assay: Inhibition of IL-4 induced STAT phosphorylation in Ramos B cell line, flow cytometry; conditions: ScFv 10 μg/ml
From the text: as §1, §2, §3

[5] = tested on: IL-21 induced STAT3 phosphorylation; assay: Inhibition of IL-21 induced STAT phosphorylation in Ramos B cell line, flow cytometry; conditions: ScFv 10 μg/ml
From the text: as §1, §2, §3

[6] = tested on: IL-7 induced STAT5 phosphorylation; assay: Inhibition of IL-7 induced STAT5 phosphorylation in HPB-ALL T cell line, flow cytometry; conditions: ScFv 10 μg/ml
From the text: as §1, §2, §3

[7] = tested on: IL-9 induced STAT3 phosphorylation; assay: Inhibition of IL-9 induced STAT3 phosphorylation in Jurkat T cell line, flow cytometry; conditions: ScFv 10 μg/ml
From the text: as §1, §2, §3

[8] = tested on: STAT phosphorylation induced by 6 γc cytokines; assay: Flow cytometry of p-STAT with full-length anti-γc antibodies in multiple cell lines; conditions: IL-2, IL-15 in KHYG-1; IL-4, IL-21 in Ramos; IL-7 in HPB-ALL; IL-9 in Jurkat; cytokines 10 ng/ml; 33 nM (5 μg/ml)
Experimental: Flow cytometry was employed to measure the percentage of p-STAT expressing cells after cytokine induction and anti-γc antibody treatment as previously described. IL-2 and IL-15 were tested in KHYG-1 NK cell line; IL-4 and IL-21 were tested in Ramos B cell line; IL-7 was tested in HPB-ALL T cell line; and IL-9 was tested in Jurkat T cell line.

Ramos B cells = assay: WST-8 proliferation assay, IL-4/IL-21 rescue of anti-IgM induced cell death; conditions: chimeric antibodies; 33 nM; IL-4/IL-21 10 ng/ml; 48 hours
Experimental: The effects of anti-γc antibodies in blocking IL-4 and IL-21 rescues of Ramos cell death after anti-IgM induced hyperactivation were investigated by WST-8 proliferation assay. In brief, Ramos cells (50000 cells in 100 l) were seeded into 96-well plate and stabilized at 37° C. for an hour. Cells were pretreated in anti-γc antibodies or ritlecitinib for an hour, followed by incubation of IL-4 (10 ng/ml) or IL-21 (10 ng/ml) and anti-IgM (2 ug/ml, #109-006-129, Jackson ImmunoResearch). Aft er 48 hours, 10 μl WST-8 reagent (ab228554, Abcam) was added to each well and incubated for 4 hours.
WST-8 could be reduced by cellular dehydrogenases to an orange formazan product, which the amount of formazan produced is directly proportional to the number of living Ramos cells. Optical density (OD) of each well was measured by absorbance at 450 nm using Varioskan LUX Multimode Microplate Reader (ThermoFisher Scientific).

In the case of `C=CC(=O)N1C[C@H](Nc2ncnc3[nH]ccc23)CC[C@@H]1C` [ritlecitinib], the “block of IL-4 protective effects, μ-H2AX re-induced” value [1] is reported as “could block IL-4 protective effects”, the “suppression of IL-4 induced CD23 expression” value (CD23 expression) is reported as “significantly suppress IL-4 induced CD23 expression” and the “suppression of IL-2, IL-15 and IL-21 induced granzyme A secretion” value (granzyme A secretion) is reported as “significantly suppress IL-2, IL-15 and IL-21 induced granzyme A secretion”. For the same molecule, the “suppression of IL-2 and IL-15 induced secretion of granzyme A and IFNγ” value ([2]; IL-2, IL-15 20 ng/ml, three days, 33 nM) was “significantly reduced” and the “suppression of granzyme B secretion” value ([2]; IL-2 or IL-15, 33 nM, humanized antibodies) was “superior suppression to granzyme B secretion”.

B1: SM-05F: anti-γc antibody, full-length chimeric; CDR SEQ ID NO: 84, 86, 88, 92, 94, 96 (antibody, V domains shown)
VH: EVQLQQSGPELVKPGASVKIFCKTSGYTFTEYTMHWVKQSHGESLEWIGGIDPNTGGVTYNQKFKGKATLTADKSSSTAYMELRSLTSEDSAVYYCARRRRYYGYALDYWGQGTSVTVSS
VL: DVLMTQTPLSLPVSLGDQASISCRSSQSIVHNNGNTYLEWYLQKPGQSPKLLIYKVSNRFFGVPDRFSGSGSGTYFTLKISRVEAEDLGVYYCFQGSHVPWTFGGGTKLEIKR
B1 was tested, and the “p-STAT5 inhibition (%)” value [3] was 43.73%, the “p-STAT6 inhibition (%)” value [4] was 45.99% and the “p-STAT3 inhibition (%)” value [5] was 78.97%. The “p-STAT5 inhibition (%)” value [6] was 99.42%, the “p-STAT3 inhibition (%)” value [7] was 92.36% and the “block of STAT phosphorylation” value [8] was “barely demonstrated strong inhibitory effects”. For the same molecule, the “block of IL-4 and IL-21 rescue of anti-IgM induced cell death (WST-8)” value (Ramos B cells) was “could block the effects of IL-4 and IL-21”.
